This is an account of results in US20240287172A1 (SCIRHOM, published 2024).

The labels stand for the following.
B1: antibody 5 (antibody, V domains shown)
VH: QVTLKESGPGILQPSQTLSLTCSFSGFSLSTFGMGVGWIRQPSGKGLEWLAHIWWDDEKYYNSALKSRLTISKATSKNQAFLKIANVDTADTATYYCARISNYGSNYWYFNVWGTGTTVTVSS
VL: QVVLTQSPALMSASPGEKVTMTCSAGSSVSCMYWYQQKPGSSPRVLIYDTSNLASGVPARFTGSGSGTSYSLTISRMEAEDAASYYCQQWNSYPLTFGAGTKLELK
notes: mouse IgG, kappa light chain; also called clone #5; purified antibody 5
B2: antibody 43 (antibody, V domains shown)
VH: B1 VH with T3A, P42S, H52N, E58D, S63P, A74D, T75A, S101G, N111D
VL: QIVLTQSPAIMSASPGERVTMTCSANSRISYMYWYQQKPGSSPRLLIYDTSNLASGVPVRFSGSGSGTSYSLTISRMEAEDAATYNCQQWSSYPLTFGAGTKLELK
notes: mouse IgG, kappa light chain; also called clone #43; purified antibody 43
B3: antibody 44 (antibody, V domains shown)
VH: B1 VH with G44E, E58D, S63P, A74D, A80I, A85T, D91E, A98S, S101G, N111D
VL: QIVLTQSPAVMSASPGEKVTMTCTASSSVYYMYWYQQTPGSSPRLLIYDTSNLASGVPVRFSGSGSGTSYSLTISRMEAEDAATYYCQQWNTYPLTFGAGTKLELK
notes: mouse IgG, kappa light chain; also called clone #44; purified antibody 44
B4: antibody 42 (antibody, V domains shown)
VH: B1 VH with F24L, M34R, S63P, A74D, A80V, K83R, S101Q, N111D
VL: B2 VL with Q1L, R18K, S24G, N26T, Y33F, L45V, M77V, A82V, N86Y, S91N
notes: mouse IgG, kappa light chain; also called clone #42; purified antibody 42
B5: antibody 22 (antibody, V domains shown)
VH: B1 VH with A80V
VL: B1 VL with C31Y, S84T
notes: mouse IgG, kappa light chain; also called clone #22; purified antibody 22
B6: antibody 34 (antibody, V domains shown)
VH: QVTLKESGPGILQPSQTLSLTCSFSGFSLSTFSLGVGWIRQSSGKGLEWLAHIWWDDEKYYNPALKSRLTISKDTSKNQVFLKIANVDAADTATYYCARAYYSKSYYALDYWGQGTSVTVSS
VL: DIQMTQSPSSLSASLGERVSLTCRASQEISGYLSWLQQKPDGTIKRLIYAASTLDSGVPKRFSGSRSGSDYSLAISSLESEDFADYYCLQYANFPFTFGSGTKLEIK
notes: mouse IgG, kappa light chain; also called clone #34; purified antibody 34
B7: antibody 3 (antibody, V domains shown)
VH: QVTLKESGPGILQPSQTLSLTCSFSGFSLTTFAMGIGWVRQPSGKGLEWLAHIWWDGEKYNNPVLKSRLTISKDTSKNQVFLRIANVDTPDTATYYCARISSIYYIIDNWGQGTSVTVSS
VL: DIVLTQSPATLSVTPGHSVSLSCRASQSISNNLHWYQKKSHESPRLLIKYVSQSISGIPSRFSGSGSGTDFTLSINSVETEDFGMYFCQQSYNWPLTFGAGTKLELK
notes: mouse IgG, kappa light chain; also called clone #3; purified antibody 3
B8: antibody 48 (antibody, V domains shown)
VH: QVQLQQSGTELVRPGTSVKVSCKASGYAFTNYLIEWVKQRPGQGLEWIGVINPGSGFTKYNEKFKGKATLTADKSSSTVYMHLSSLTSEDSAVYFCARGLYRAMDYWGQGTSVTVSS
VL: DIQMTQSPASQSASLGESVTITCLASQTIATWLAWYQQKPGKSPQLLIYGATTLADGVPSRFSGGGSGTKFSFKISSLQAEDFVSYYCQQLYSTPYTFGGGTKLEIK
notes: mouse IgG, kappa light chain; also called clone #48; purified antibody 48
B9: antibody 50 (antibody, V domains shown)
VH: B8 VH with T9A, T16A, T30S, V79A, H82Q
VL: B8 VL with A30G, G50A, T52A, T53S, S85N, L91I
notes: mouse IgG, kappa light chain; also called clone #50; purified antibody 50

Numbering of substitutions follows the chain as printed. Where only a bound is given, the exact number is not on record here.

The target in the first test is T1, hiR2-FL-S562E-T7 (human, UniProt Q6PJF5 1-856).
T1 sequence: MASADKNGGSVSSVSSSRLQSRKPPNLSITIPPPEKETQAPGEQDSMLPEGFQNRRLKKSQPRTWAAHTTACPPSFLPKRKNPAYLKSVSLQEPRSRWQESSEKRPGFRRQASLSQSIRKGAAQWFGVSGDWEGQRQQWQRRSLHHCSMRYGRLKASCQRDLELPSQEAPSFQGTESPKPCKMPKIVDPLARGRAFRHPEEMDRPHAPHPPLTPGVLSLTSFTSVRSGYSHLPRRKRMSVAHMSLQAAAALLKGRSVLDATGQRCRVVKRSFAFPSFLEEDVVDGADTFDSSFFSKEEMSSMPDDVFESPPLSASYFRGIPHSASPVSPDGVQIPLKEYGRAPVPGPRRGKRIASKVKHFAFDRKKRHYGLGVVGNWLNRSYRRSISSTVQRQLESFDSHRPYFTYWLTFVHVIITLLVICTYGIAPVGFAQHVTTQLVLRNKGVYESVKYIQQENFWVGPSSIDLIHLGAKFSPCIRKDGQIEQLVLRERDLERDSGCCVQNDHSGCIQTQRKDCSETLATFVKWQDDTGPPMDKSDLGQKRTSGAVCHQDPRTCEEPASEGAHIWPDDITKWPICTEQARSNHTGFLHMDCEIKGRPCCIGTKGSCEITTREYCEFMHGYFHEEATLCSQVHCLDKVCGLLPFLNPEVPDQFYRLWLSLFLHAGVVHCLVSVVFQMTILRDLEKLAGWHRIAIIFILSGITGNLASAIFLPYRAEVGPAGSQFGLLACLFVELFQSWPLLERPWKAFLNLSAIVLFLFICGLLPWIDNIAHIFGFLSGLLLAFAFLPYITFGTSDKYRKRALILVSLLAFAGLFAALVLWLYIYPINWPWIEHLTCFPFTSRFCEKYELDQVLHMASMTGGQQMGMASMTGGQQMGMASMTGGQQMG
The test is described as follows: FACS, MEF-DKO cells, 3 µg/ml. In general terms: Flow cytometry measures light scatter and fluorescence of single cells or particles in a stream.
As for B1, the “loss of binding vs wild type” value was at least 60%.
The same measure, in the same setting: under B2 stands at least 60%; under B3, at least 30%; under B4, at least 60%.
Same read-out and setting: under B5 stands at least 30%; under B6, at least 60%; under B7, at least 30%.
On to B8, for which the “loss of binding vs wild type” value was at least 30%.
Regarding B9, the “loss of binding vs wild type” value was at least 30%.

Another test deals with T2, hiR2-FL-E557D-T7 (human, UniProt Q6PJF5 1-856).
T2 sequence: T1 sequence with E557D, E562S
The experiment in a line: FACS, MEF-DKO cells, 3 µg/ml.
On to B1, for which the “loss of binding vs wild type” value was at least 60%.
For the molecule B2, the “loss of binding vs wild type” value is at least 30%.
Same read-out and setting: with B3 the figure was at least 30%.
On to B4, for which the “loss of binding vs wild type” value is at least 30%.
On the same count and under the same terms, under B5 stands at least 30%.
Turning to B6, the “loss of binding vs wild type” value was at least 60%.
With B7, the “loss of binding vs wild type” value is at least 60%.
In the case of B8, the “loss of binding vs wild type” value was at least 30%.
The same measure, in the same setting: with B9 the figure was at least 30%.
